This is an account of results in US20070248607A1, “NEGATIVE IMMUNOMODULATION OF IMMUNE RESPONSES BY NKG2D-POSITIVE CD4+ CELLS” (priority 2005, published 2007).

“Also recorded” adds a separate entry of the source. Peptide text beside a SMILES is read from it.

For series [1], the system named is sMICA shedding by Hela and A375 cells. Briefly: Shedding of sMICA by tumor cell lines, ELISA for sMICA. The class given is cell-based. Particulars: pharmacological inhibitors; U266, Hela, A375, HCT116 and Lovo cells; concentration-dependent; ELISA. For orientation: In an ELISA, binding on a coated surface is turned into a signal by an enzyme label.
Series [2] deals with the molecule itself. Briefly: size exclusion chromatography (self-association). (In general: SEC sorts molecules by how far they enter the pores of the column.)
The target in series [3] is T1, recombinant soluble MICA (rsMICA), unglycosylated, produced in bacteria; ectodomain-only MICA.
T1 chain: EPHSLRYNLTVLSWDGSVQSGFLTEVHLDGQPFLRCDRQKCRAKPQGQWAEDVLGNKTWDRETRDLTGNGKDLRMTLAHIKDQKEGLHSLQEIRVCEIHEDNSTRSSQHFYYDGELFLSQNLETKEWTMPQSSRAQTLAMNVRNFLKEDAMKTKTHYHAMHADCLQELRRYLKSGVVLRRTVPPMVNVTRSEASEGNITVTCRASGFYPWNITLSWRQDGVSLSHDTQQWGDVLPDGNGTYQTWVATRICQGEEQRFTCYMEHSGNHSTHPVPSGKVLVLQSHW

A further series relates to NKG2D+ CD4+ T cells. Briefly: NKG2D expression and expansion of activated CD4 T cells. The class given is cell-based. The note with it: anti-CD3 activated CD4 T cell cultures. The protocol: For the analysis of NKG2D expression in activated CD4 T cells, freshly isolated pure CD4^+ T cells were plated at 0.3×10^6/2 ml AIM-V medium (Gibco)/well in 24 well plates for various periods of time with or without the presence of mitogenic stimuli and/or the presence of NKG2D ligands. Mitogenic stimuli included either cross-linked anti-CD3 (plates were first coated with AffiniPure F(ab′)2 fragment goat anti-mouse IgG1, Fcγ fragment specific (Jackson ImmunoResearch Laboratories, Inc.) at 10 μg/ml in PBS over night at 4° C. followed by a 4 hr room temperature incubation with anti-CD3 (OKT3, Orthoclone, Ortho Biotech Products, L.P.) at 50 ng/ml (if not indicated otherwise), PHA (5 μg/ml), or PMA/Ionomycin. Ligand additions consisted of either irradiated CLR-MICA and control transfectants at a T cell:transfectant ratio of 5:1, or recombinant soluble MICA at 25 ng/ml if not indicated otherwise. Cells were harvested at various time points after the initiation of culture and tested for NKG2D, CD4 and CD3 coexpression using directly conjugated mAbs for standard three color flow cytometry.
(§1) For analysis of CD4^+ T cell proliferation in conjunction with NKG2D expression, 1×10^7 freshly isolated pure CD4^+ T cells/ml PBS were labeled with an equal volume of 2 μM CFSE (Molecular Probes) for 8 min at room temperature. CFSE was quenched with an equal volume of fetal calf serum for one min followed by three washes with AIM-V medium. CFSE labeled cells were then plated, stimulated and phenotypically analysed as described above. Additional ligands tested in this experimental setting included any of either C1R-MICB, ULBP-1, -2, -3, 4, or -5 transfectants, recombinant soluble MICB, or 5% soluble MIC containing serum from a MIC+ tumor patient and MIC− control serum. To test ligand specificity, ligand containing cultures were treated with either 10 μg/ml 6D4 (anti-MICA/B), 10 μg/ml 3F1 (anti-ULBP-1), or appropriately diluted isotype control immunoglobulins. In some experiments, ligand was replaced by solid-phase anti-NKG2D (1D11) at the concentrations ranging from 5-50 ng/ml. In some experiments, ligand/solid-phase mAb were added on day 1, 2 or 3 after the initiation of culture.

The subject of the next series is NKG2D- CD4+ T cells. Briefly: CD4 T cell proliferation (CFSE dilution, [3H]thymidine incorporation). It counts as cell-based. Particulars: anti-CD3 activated CD4 T cell cultures. The protocol:
as §1
To assess inhibition of CD4^+ T cell proliferation by standard [^3H]thymidine incorporation experiments, freshly isolated pure CD4^+ T cells were plated at 1×10^5 cells/well in a 96 well flat bottom plate containing titrated cross-linked anti-CD3 (see above) or isotype control Ig with or without titrated recombinant soluble MIC. After 72 hrs at 37° C., plates were pulsed with 3 μCi of [^3H]thymidine (Perkin Elmer) for 12 hrs. Plates were harvested and samples analysed by liquid scintillation using Uni-Filter GF/C plates and a TopCount Counter (both from Packard). Counts from triplicates were averaged.
On the technique in general: Dividing cells build labelled thymidine or BrdU into new DNA.

For series [4], the target named is T2, MICA (Homo sapiens, UniProt Q29983).
T2 sequence (Q29983 210-297): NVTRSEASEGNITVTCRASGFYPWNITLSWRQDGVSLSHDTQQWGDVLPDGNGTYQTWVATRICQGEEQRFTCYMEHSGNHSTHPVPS
Briefly: ERP5 activity assay, disulfide reduction (non-reducing SDS-PAGE). The note with it: isolated α3 domain (residues 187-274). The class given is biochemical.

Series [5] has as its target T3, MICA (Homo sapiens, UniProt Q29983).
T3 sequence (Q29983 24-299): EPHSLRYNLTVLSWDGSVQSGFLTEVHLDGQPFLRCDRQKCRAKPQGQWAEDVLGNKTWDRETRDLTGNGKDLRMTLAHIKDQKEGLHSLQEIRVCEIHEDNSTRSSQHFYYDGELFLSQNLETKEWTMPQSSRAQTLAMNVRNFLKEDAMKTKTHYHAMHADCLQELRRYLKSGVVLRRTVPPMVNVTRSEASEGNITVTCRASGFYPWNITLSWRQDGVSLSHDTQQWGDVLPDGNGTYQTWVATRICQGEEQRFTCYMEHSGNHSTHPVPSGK
Described as above. It counts as biochemical. Particulars: ectodomain MICA substrate, room temperature, 1 h or 3 h, no reducing agent.

Series [6] has as its target T4, MICA tetramer (recombinant MICA*001, residues 1-276, produced in transfected 293T cells, conjugated with … (human, UniProt Q29983 24-299, highly glycosylated (293T cells); conjugated with PE-streptavidin).
T4 construct: Tags from the Invitrogen expression system are not described; also called MICA tetramers; MICA ligand tetramers
T4 sequence: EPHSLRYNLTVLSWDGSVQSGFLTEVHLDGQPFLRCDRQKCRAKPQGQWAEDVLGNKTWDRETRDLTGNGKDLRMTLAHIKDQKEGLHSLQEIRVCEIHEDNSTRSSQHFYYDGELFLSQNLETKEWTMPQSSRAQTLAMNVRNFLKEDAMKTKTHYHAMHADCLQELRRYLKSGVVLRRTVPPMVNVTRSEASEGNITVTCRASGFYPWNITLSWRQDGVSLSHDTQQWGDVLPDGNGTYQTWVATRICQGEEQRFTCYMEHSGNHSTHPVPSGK
Briefly: flow cytometry, PE-streptavidin tetramers on NKL cells.

`CC[C@H](C)[C@H](N)C1=N[C@H](C(=O)N[C@@H](CC(C)C)C(=O)N[C@H](CCC(=O)O)C(=O)N[C@H](C(=O)N[C@H]2CCCCNC(=O)[C@H](CC(N)=O)NC(=O)[C@@H](CC(=O)O)NC(=O)[C@H](Cc3cnc[nH]3)NC(=O)[C@@H](Cc3ccccc3)NC(=O)[C@H]([C@@H](C)CC)NC(=O)[C@@H](CCCN)NC2=O)[C@@H](C)CC)CS1` [bacitracin] (HELM PEPTIDE1{[CC[C@H](C)[C@H](N)C1=N[C@H](C(=O)[*:2])CS1].L.[dE].I.K.[NCCC[C@@H](N[*:1])C(=O)[*:2]].I.[dF].H.[dD].N}$PEPTIDE1,PEPTIDE1,5:R3-11:R2$$$V2.0): in series [1], the “shedding of sMICA” value is listed as “markedly reduced; also recorded: Inhibition of sMICA shedding; also recorded: reduce shedding of sMICA”.

In the case of `O=C(O)c1cc(SSc2ccc([N+](=O)[O-])c(C(=O)O)c2)ccc1[N+](=O)[O-]` [DTNB, 5,5-dithiobis-(2-nitrobenzoic acid)], the “shedding of sMICA” value in series [1] was “markedly reduced; also recorded: Inhibition of sMICA shedding; also recorded: reduce shedding of sMICA”.

B1: ERP5 fragment 135-421, bacterially produced, N-terminal hexahistidine (enzyme, UniProt Q15084 154-440, looked up)
chain: SDSSSKKDVIELTDDSFDKNVLDSEDVWMVEFYAPWCGHCKNLEPEWAAAASEVKEQTKGKVKLAAVDATVNQVLASRYGIRGFPTIKIFQKGESPVDYDGGRTRSDIVSRALDLFSDNAPPPELLEIINEDIAKRTCEEHQLCVVAVLPHILDTGAAGRNSYLEVLLKLADKYKKKMWGWLWTEAGAQSELETALGIGGFGYPAMAAINARKMKFALLKGSFSEQGINEFLRELSFGRGSTAPVGGGAFPTIVEREPWDGRDGELPVEDDIDLSDVELDDLGKDEL
notes: range 135-421; Numbers count on the mature protein; also called ERP5 135-421; not shown: N-terminal hexahistidine tract
As to B1, the binding result in series [2] is “no binding”. In addition, in series [3], the “disulfide bond reduction of MICA (non-reducing SDS-PAGE)” value is on record as “only the N-terminal domain displayed functional activity”.

B2: soluble MIC: recombinant soluble MIC ligand of NKG2D (protein)
chain: EPHSLRYNLTVLSWDGSVQSGFLTEVHLDGQPFLRCDRQKCRAKPQGQWAEDVLGNKTWDRETRDLTGNGKDLRMTLAHIKDQKEGLHSLQEIRVCEIHEDNSTRSSQHFYYDGELFLSQNLETKEWTMPQSSRAQTLAMNVRNFLKEDAMKTKTHYHAMHADCLQELRRYLKSGVVLRRTVPPMVNVTRSEASEGNITVTCRASGFYPWNITLSWRQDGVSLSHDTQQWGDVLPDGNGTYQTWVATRICQGEEQRFTCYMEHSGNHSTHPVPSGK
In the case of B2, the “expansion / proliferation of NKG2D+ CD4+ T cells” value in the series with NKG2D+ CD4+ T cells is “enhanced”. Moreover, the “proliferation of NKG2D- CD4+ T cells” value in the series on NKG2D- CD4+ T cells is “dramatically inhibited”.

B3: ERP5 fragment 1-118 (N-terminal thioredoxin-like domain), bacterially produced, N-terminal hexahistidine (enzyme, UniProt Q15084 20-137, looked up)
chain: LYSSSDDVIELTPSNFNREVIQSDSLWLVEFYAPWCGHCQRLTPEWKKAATALKDVVKVGAVDADKHHSLGGQYGVQGFPTIKIFGSNKNRPEDYQGGRTGEAIVDAALSALRQLVKD
notes: Numbers count on the mature protein; also called N-terminal ERP5 polypeptide fragment; not shown: N-terminal hexahistidine tract
For the molecule B3, the binding result in series [2] is reported as “no binding”. In addition, in series [3], the “disulfide bond reduction of MICA (non-reducing SDS-PAGE)” value is reported as “only the N-terminal domain displayed functional activity”.

B4: ERP5 fragment 1-118 C36S mutant (protein)
chain: LYSSSDDVIELTPSNFNREVIQSDSLWLVEFYAPWSGHCQRLTPEWKKAATALKDVVKVGAVDADKHHSLGGQYGVQGFPTIKIFGSNKNRPEDYQGGRTGEAIVDAALSALRQLVKD
Consider B4, for which the “disulfide bond reduction of MICA (non-reducing SDS-PAGE)” value in series [3] is reported as “C36S showed no activity on MICA substrate”.

B5: C39S: C39S active site mutant of ERP5 fragment 1-118 (protein)
chain: LYSSSDDVIELTPSNFNREVIQSDSLWLVEFYAPWCGHSQRLTPEWKKAATALKDVVKVGAVDADKHHSLGGQYGVQGFPTIKIFGSNKNRPEDYQGGRTGEAIVDAALSALRQLVKD
modifications: left off: small tags and cut ends
In the case of B5, the “reduction of the MICA α3 domain disulfide bond” value is on record as “reduces the α3 domain disulfide bond of MICA” with MICA [4] (listed as ERP5 1-118 C39S mutant polypeptide) and “unresolved mixed disulfide heterodimer” with MICA [4] (listed as ERP5 1-118 polypeptide fragment with the C39S mutation). Moreover, the figures for the “reduction of MICA disulfide bonds” value with MICA [5] and in the series with MICA [5] (listed as C39S mutant of ERP5 fragment 1-118) were “formed a trapped disulfide-linked intermediate” and “disulfide-linked heterodimers”, respectively.

B6: C36S: C36S active site mutant of ERP5 fragment 1-118 (protein)
chain: LYSSSDDVIELTPSNFNREVIQSDSLWLVEFYAPWSGHCQRLTPEWKKAATALKDVVKVGAVDADKHHSLGGQYGVQGFPTIKIFGSNKNRPEDYQGGRTGEAIVDAALSALRQLVKD
modifications: left off: small tags and cut ends
For the molecule B6, the “reduction of MICA disulfide bonds” value with MICA [5] was “no activity”.

B7: ERP5 fragment 1-118: N-terminal thioredoxin-like domain fragment of ERP5, residues 1-118 (protein)
chain: LYSSSDDVIELTPSNFNREVIQSDSLWLVEFYAPWCGHCQRLTPEWKKAATALKDVVKVGAVDADKHHSLGGQYGVQGFPTIKIFGSNKNRPEDYQGGRTGEAIVDAALSALRQLVKD
modifications: left off: small tags and cut ends
On to B7, for which the “reduction of MICA disulfide bonds” value in the series with MICA [5] is “partially reduced”.

B8: NKG2D (on NKL NK cells and on CD4+ T cells) (receptor, human, UniProt P26718 1-216, looked up)
chain: MGWIRGRRSRHSWEMSEFHNYNLDLKKSDFSTRWQKQRCPVVKSKCRENASPFFFCCFIAVAMGIRFIIMVTIWSAVFLNSLFNQEVQIPLTESYCGPCPKNWICYKNNCYQFFDESKNWYESQASCMSQNASLLKVYSKEDQDLLKLVKSYHWMGLVHIPTNGSWQWEDGSILSPNLLTIIEMQKGDCALYASSFKGYIENCSTPNTYICMQRTV
notes: whole, on cells; also called NKG2D receptor
As for B8, the binding result in series [6] is recorded as “binds”.

B9: soluble MICB: recombinant soluble MICB, NKG2D ligand (protein)
chain: EPHSLRYNLMVLSQDGSVQSGFLAEGHLDGQPFLRYDRQKRRAKPQGQWAEDVLGAETWDTETEDLTENGQDLRRTLTHIKDQKGGLHSLQEIRVCEIHEDSSTRGSRHFYYNGELFLSQNLETQESTVPQSSRAQTLAMNVTNFWKEDAMKTKTHYRAMQADCLQKLQRYLKSGVAIRRTVPPMVNVTCSEVSEGNITVTCRASSFYPRNITLTWRQDGVSLSHNTQQWGDVLPDGNGTYQTWVATRIRQGEEQRFTCYMEHSGNHGTHPVPSGK
Regarding B9, the “proliferation of NKG2D- CD4+ T cells” value in the series with NKG2D- CD4+ T cells is on record as “Growth inhibition”.
